Tests used:
[1] = system: hWAT-SVF and hBAT-SVF progenitors; test: Glucose uptake, fatty acid uptake and oxidation in adipocytes from BMP7 pre-treated progenitors; type: cell-based, human; conditions: hWAT-SVF from both subjects and hBAT-SVF from Subject 2; 3.3 nM BMP7 pre-exposure 6 days
Protocol: FIG. 6B depicts OCR assayed using the Seahorse extracellular flux analyzer in differentiated hWA and hBA from Sub1 and Sub2 that were pre-treated with 3.3 nM BMP7 or vehicle (Veh) for 6 days and then differentiation into mature adipocytes. Equal numbers of progenitors were plated and differentiated. Quantification of OCR in the absence (Basal Res.) and presence of oligomycin (Proton Leak) or FCCP (Max. Res.) are shown. Data are presented as mean±s.e.m. (n=10; two-tailed Student's t-test; *P<0.05, **P<0.01, ***P<0.001). A representative experiment from a total of two independent studies is shown. Data are represented in the same order as appeared in the legend. […]
After serum starvation in DMEM/H medium containing 1% of BSA for 2-3 h, differentiated human white and brown adipocytes were washed with HEPES buffer. […] Glucose transport was determined by the addition of 2-deoxy-[^3H]glucose (0.1 mM, 0.5 μCi/mL; PerkinElmer Life and Analytical Science, Waltham, Mass.). […] Cells were then lysed in 0.1% SDS, and glucose uptake was assessed in 4 mL of scintillant using Beckman LS6500 scintillation counter (Beckman Coulter, Indianapolis Ind.). Nonspecific 2-deoxy-[^3H]glucose uptake was measured in the presence of cytochalasin B (20 μM) and was subtracted from the total uptake to get specific glucose uptake. Results were expressed as the mean±s.e.m. of the indicated number of experiments. […]

[2] = system: hWAT-SVF and hBAT-SVF progenitors; test: BMP pre-treatment of progenitors, Q-RT-PCR for UCP1 and PPARγ in mature adipocytes; type: cell-based, human

B1: BMP7: Recombinant human BMP7, an inducer of brown adipogenesis (protein, UniProt P18075 293-431, looked up)
Bone morphogenetic protein 7: STGSKQRSQNRSKTPKNQEALRMANVAENSSSDQRQACKKHELYVSFRDLGWQDWIIAPEGYAAYYCEGECAFPLNSYMNATNHAIVQTLVHFINPETVPKPCCAPTQLNAISVLYFDDSSNVILKKYRNMVVRACGCH
- fuel utilization in mature adipocytes [1]: enhanced
- UCP1 expression in mature adipocytes ([2]; hWAT-SVF from both subjects and hBAT-SVF from Subject 2, 3.3 nM BMP7 pre-exposure 6 days): increased
- PPARγ expression ([2]; mature brown adipocytes from Subject 2 only, BMP7 pretreatment): augmented
